# Data: the supplement of paper PMC12042874
# ± gives the uncertainty stated by the source.
# Test: amyloid nucleation score (Sup35N fusion, yeast selection) (log enrichment); library NNK3; higher = more nucleation; inactive = no reads after selection
# Procedure, shortened: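 Sup35N fusions to peptides of 20 random codons were expressed in psi-negative yeast, induced 24 hours with 100 μM copper sulfate, and grown 7 days at 30°C on medium lacking adenine and uracil. Input and output plasmid inserts were sequenced by Illumina. The nucleation score is the DiMSum log enrichment of output over input reads, centred on the mode score of non-aggregating sequences. Sequences with under 100 input reads were excluded.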
row,Substance,amyloid nucleation score
1,VNLYGSRL,inactive
2,VNNPVLFFQ,inactive
3,VNRNFILSSLVH,inactive
4,VNTATCYQ,inactive
5,VNTEG,inactive
6,VNVDLPLARNHWYPSPIYMV,-0.654 ± 0.84
7,VPGELGALGQACLKEDFSKG,inactive
8,VPGFLGLTLHLLRREHQQNH,inactive
9,VPNDKVGKLRIMGREWVRSH,inactive
10,VPNLEVSLKAFSSIVSFVRG,inactive
11,VQHFRHQSASELV,inactive
12,VQIRAANLTYNRQCQSHLFS,inactive
13,VQISIDKAWMRTSTCSIGSK,inactive
14,VQSSIESLPDPIFRYLQSIS,inactive
15,VRALNTAAWLSNTRCLGMDA,inactive
16,VRARFHDGQF,-1.05 ± 2.4
17,VRCVGGHSHDHWETVWGVFG,inactive
18,VRDVDKMC,inactive
19,VREMGLTHFTASLYRGEMPG,inactive
20,VRFCSEMVCLDYFSNIMHLG,inactive
21,VRFKRVYCSG,inactive

row,Substance,amyloid nucleation score
1,VRFVSYRLVGSV,inactive
2,VRGTGVVDRLGLGRWDRPEG,inactive
3,VRHNLLGCLLGSFLGASSNR,-0.306 ± 0.37
4,VRHVITSSG,inactive
5,VRIFYMV,inactive
6,VRISMRDMVWSRFWLPVVLK,inactive
7,VRLCRGS,inactive
8,VRNILRLNRFCWCKTLQKIA,inactive
9,VRNWTDD,inactive
10,VRPFPFTWSSSNKEV,inactive
11,VRRHAF,inactive
12,VRTLPDLLPINRKQMVKERM,inactive
13,VRVDDKSNCVTRRFKP,inactive
14,VRVTLWYQTNMGIFEGHSRN,inactive
15,VSGFERVHGKGSN,inactive
16,VSGSEFLDFKQLVYTLDAAC,0.481 ± 0.35
17,VSHFSSRHKRTEVRSGSPQT,inactive
18,VSHNSCGQTAESLNNFKTWS,inactive
19,VSHTSNTTYRWRMFIYWSAF,0.104 ± 0.26
20,VSKESILGGRCVM,inactive
21,VSLFRSLGNLSFSSIWLPSP,inactive

row,Substance,amyloid nucleation score
1,VSLLMRASGSCLNMQVYSGF,1.57 ± 0.11
2,VSLPSVIKYNDS,inactive
3,VSLTGWSR,inactive
4,VSLYCVIWIR,1.22 ± 0.094
5,VSMVPRNIWCEMFCQTHADI,1.26 ± 0.1
6,VSPMVALCCFCLKEMNFGVH,2.92 ± 0.069
7,VSRSRER,inactive
8,VSSFWFCLS,inactive
9,VSSTVGMV,0.175 ± 0.29
10,VSVLYYLKY,0.132 ± 0.28
11,VSYEWPSQMFRPRVPLALAT,inactive
12,VSYGPA,inactive
13,VSYKKDCMQTSLRLVITF,inactive
14,VTFKDMDTHGWVHLSIHVAE,inactive
15,VTGEYLRMAISGCRG,inactive
16,VTGMFDSSLRRKMKVPVWAI,inactive
17,VTKGWQGLGGLMGGEVCPWV,inactive
18,VTLADEDGYKFLTLVKVLTY,inactive
19,VTLMLSITSP,inactive
20,VTLSGCIDLVWVCGVT,2.01 ± 0.099
21,VTMFFLFHMQLYFSSKILGF,inactive

row,Substance,amyloid nucleation score
1,VTQSQRKASFMVCSYSTITR,inactive
2,VTSYYSHISYVTL,inactive
3,VTVSAQPAIK,inactive
4,VVCELCGSYYYIHCWDCNAS,2.75 ± 0.069
5,VVCGANHLRIFFVNRVMWD,inactive
6,VVDCLFLSEPCYVGFRWVIE,inactive
7,VVDIKNLYTCLTFCHKYGLN,0.988 ± 0.12
8,VVDNRNLSTCFYFRCVDWCQ,inactive
9,VVEIMDLS,inactive
10,VVFENLDRAFVYRRLDPIRC,inactive
11,VVFGHAFYVTSHKTVLCSFG,inactive
12,VVIHRSSSISGT,inactive
13,VVILHCKTYAMASRWYGYRG,-0.003 ± 0.81
14,VVKAFYRARELGFRAGLRTD,inactive
15,VVLCLFFLLDIFSTGKVYIK,inactive
16,VVLDSVVWGFDELSRLMSGA,inactive
17,VVMKGTRMVKVKERGSGKDY,inactive
18,VVNILW,1.82 ± 0.1
